Legend:
Assay in all cases: fluorescence anisotropy
Details in all cases: Hill slope fit; 10 nM 6-FAM ssDNA, 0.001-6 uM protein, 20 min at 30 C, read at room temperature; binding buffer not stated (protein storage FP buffer: 200 mM NaCl, 50 mM …)
[1] = test system: condensin holocomplex, Smc4-A1376S-Q1377A (Saccharomyces cerevisiae (overexpressed in strain D1074))
[2] = test system: condensin holocomplex, Smc4-K191M (Saccharomyces cerevisiae (overexpressed in strain D1074))
[3] = test system: condensin holocomplex, Smc4-L1333I-L1335A (Saccharomyces cerevisiae (overexpressed in strain D1074))
[4] = test system: condensin holocomplex, Smc4-L1333V-L1335A (Saccharomyces cerevisiae (overexpressed in strain D1074))
[5] = test system: condensin holocomplex, Smc4-L1335A (Saccharomyces cerevisiae (overexpressed in strain D1074))
[6] = test system: condensin holocomplex, Smc4-Q1377A (Saccharomyces cerevisiae (overexpressed in strain D1074))
[7] = test system: condensin holocomplex, wild-type Smc4 (Saccharomyces cerevisiae (overexpressed in strain D1074))

6-FAM 60-nt ssDNA
Kd [1]: 171 nM
Kd [2]: 76.7 nM
Kd [3]: 92.8 nM
Kd [4]: 148 nM
Kd [5]: 193 nM
Kd [6]: 216 nM
Kd [7]: 252 nM
